One may read the Kd as the free concentration of one partner at which half of the binding sites on the other are occupied at equilibrium, for simple one-to-one binding. The low end stands for higher affinity, the high end for lower affinity. Broadly, the koff is the rate constant with which the complex falls apart. As usually defined, the kon is the rate constant with which the complex forms. Read a low kon as slow association.

Changes are numbered by the printed parent chain.

In test [1] the target is T1, HPrK/P (HPr kinase/phosphatase) (Thermoanaerobacterium aotearoense, UniProt A0A0S1LJ76).
T1 construct: protein substrate recombinant HPr (KR818834) of the same strain
T1 sequence (A0A0S1LJ76 1-304): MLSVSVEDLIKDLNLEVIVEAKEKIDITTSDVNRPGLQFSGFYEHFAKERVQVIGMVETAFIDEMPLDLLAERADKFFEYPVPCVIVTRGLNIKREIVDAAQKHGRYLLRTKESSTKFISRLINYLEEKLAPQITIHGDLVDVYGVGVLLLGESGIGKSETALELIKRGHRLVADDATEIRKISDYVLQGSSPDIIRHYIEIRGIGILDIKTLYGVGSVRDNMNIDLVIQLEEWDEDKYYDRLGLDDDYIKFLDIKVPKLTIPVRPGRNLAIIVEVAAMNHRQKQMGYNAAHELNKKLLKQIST
Put plainly: HPr phosphorylation, Phos-tag SDS-PAGE. It counts as biochemical. The note with it: 5 mM ATP, 50 uM HPr, 5 mM MgCl2, 10 mM NaCl, 100 mM Tris-Cl pH 7.0, 37 C, 10 min.

Test [2] has as its target catabolite control protein A (CcpA) from T. aotearoense SCUT27 with a C-terminal His-tag (Thermoanaerobacterium aotearoense SCUT27) (UniProt T1SCF9). Put plainly: SPR; SPRi (Plexera V3), 25°C; CcpA printed as spots on gold-coated sensor slides by amine coupling; HPr, HPrSerP or HPrM flowed as analytes at 2 μL/s, association and dissociation 300 s each; PBST pH 7.2 running buffer; BSA as reference; Langmuir binding model. For orientation: SPR reads the build-up and loss of mass on a sensor chip optically.

Test [3] concerns the target T2, catabolite control protein A (CcpA) from T. aotearoense SCUT27 with a C-terminal His-tag (Thermoanaerobacterium aotearoense SCUT27, UniProt T1SCF9 1-336).
T2 construct: CcpA, catabolite control protein A, Thermoanaerobacterium aotearoense SCUT27; ORF of 336 amino acids (ccpA gene, 1011 bp, GenBank KC899078); full-length gene cloned into pET30a (NdeI/XhoI); The genomic primer begins with GTG, the expression primer Tc-F with ATG; Cloning through XhoI of pET30a probably adds LE before the His-tag (surmised); also called pET-CcpA product; source: E. coli BL21(DE3), …
Described as above. As to conditions: both partners purified.

Chain of catabolite control protein A (CcpA) from T. aotearoense SCUT27 with a C-terminal His-tag (Thermoanaerobacterium aotearoense SCUT27) (T1SCF9 entry or part of it): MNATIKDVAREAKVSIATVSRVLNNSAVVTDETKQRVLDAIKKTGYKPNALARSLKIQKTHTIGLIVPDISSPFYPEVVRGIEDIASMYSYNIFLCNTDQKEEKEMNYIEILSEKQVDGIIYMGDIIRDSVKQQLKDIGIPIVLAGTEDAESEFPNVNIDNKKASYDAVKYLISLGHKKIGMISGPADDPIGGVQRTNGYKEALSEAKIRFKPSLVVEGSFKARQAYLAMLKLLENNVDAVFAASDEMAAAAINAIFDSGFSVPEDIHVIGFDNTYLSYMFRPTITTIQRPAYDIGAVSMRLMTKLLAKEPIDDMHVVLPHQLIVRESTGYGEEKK
T2 sequence (T1SCF9 entry or part of it): as above

For `Nc1ncnc2c1ncn2[C@@H]1O[C@H](COP(=O)(O)OP(=O)(O)OP(=O)(O)O)[C@@H](O)[C@H]1O` [ATP], the “HPr phosphorylation, Phos-tag SDS-PAGE” value in test [1] is “HPrK/P lost its kinase activity when there was no ATP in the reaction mixture”.
Turning to “Histidine-containing Protein (HPr) from T. aotearoense SCUT27 with a C-terminal His-tag, not phosphorylated (natural protein)”, in test [2], the Kd amounted to 2.29 µM, the dissociation rate constant (koff) amounted to 0.000922 s⁻¹ and the on-rate constant (kon) was found to be 403 M⁻¹ s⁻¹.

B1: HPrM, HPr from T. aotearoense SCUT27 with Ser46 mutated to Ala, C-terminal His-tag (natural protein)
chain: MTEKTVEIKNKTGLHARPAALFVQAASKFSSQIWVEKENKKVNAKAIMGIMSLGVAQGNTVKLIADGSDEQEAIKTLVDLIDSKFGEE
In the case of B1, in test [3], binding was characterised by a dissociation constant (Kd) of 6.01 µM, the koff stood at 0.000576 s⁻¹ and the kon was found to be 95.8 M⁻¹ s⁻¹.

B2: seryl-phosphorylated HPr (HPrSerP) from T. aotearoense SCUT27 with a C-terminal His-tag (natural protein, Thermoanaerobacterium aotearoense SCUT27, UniProt A0A0S1LJA4 1-88, looked up)
chain: B1 chain with A46S
modifications: phosphoserine at 46
notes: HPr, histidine-containing protein, Thermoanaerobacterium aotearoense SCUT27; ORF of 88 amino acids (ptsH gene, GenBank KR818834); full-length gene cloned into pET30a (NdeI/HindIII); phosphorylated at Ser46; Same chain as m3, phosphorylated at Ser46 by recombinant HPrK/P; also called HPrK/P treated HPr; source: E. coli BL21(DE3), purified (HiTrap Chelating HP, desalting column), phosphorylated in …
In test [3], B2 displayed a dissociation constant Kd of 0.00222 µM, a koff of 7.78e-07 s⁻¹ and a kon of 350 M⁻¹ s⁻¹.

These data come from article PMC4634974, “Carbon Catabolite Repression and the Related Genes of ccpA, ptsH and hprK in Thermoanaerobacterium aotearoense” (PLoS ONE, 2015).
